Results published in patent US12559545.

How the values were obtained:
[1] = biological target: HeV-RBP head domain (residues 185-604), recombinant soluble (Hendra virus) (UniProt O89343); assay: BLI on HeV RBP head domain, after first mAb HENV-1
[2] = biological target: HeV-RBP head domain (residues 185-604), recombinant soluble (Hendra virus) (UniProt O89343); assay: BLI on HeV RBP head domain, after first mAb HENV-26
[3] = biological target: HeV-RBP head domain (residues 185-604), recombinant soluble (Hendra virus) (UniProt O89343); assay: BLI on HeV RBP head domain, after first mAb HENV-43
[4] = biological target: HeV-RBP head domain (residues 185-604), recombinant soluble (Hendra virus) (UniProt O89343); assay: BLI on HeV RBP head domain, after first mAb HENV-9
[5] = biological target: HeV-RBP head domain (residues 185-604), recombinant soluble (Hendra virus) (UniProt O89343); assay: BLI on HeV RBP head domain, after first mAb HENV-19
[6] = biological target: full-length NiVB-RBP expressed on the surface of transfected cells (Nipah virus, strain Bangladesh) (UniProt Q9IH62)
[7] = biological target: full-length HeV-RBP expressed on the surface of transfected cells (Hendra virus) (UniProt O89343)
[8] = biological target: full-length NiVM-RBP expressed on the surface of transfected cells (Nipah virus, strain Malaysia) (UniProt Q9IH62)
[9] = biological target: HeV-RBP head domain (residues 185-604), recombinant soluble (Hendra virus) (UniProt O89343); assay: BLI on HeV RBP head domain, after first mAb HENV-2
[10] = biological target: HeV-RBP head domain (residues 185-604), recombinant soluble (Hendra virus) (UniProt O89343); assay: BLI on HeV RBP head domain, after first mAb HENV-10
[11] = biological target: HeV RBP on live Hendra virus (Hendra virus) (UniProt O89343); assay: cell-based or functional assay
[12] = biological target: NiVB RBP on live Nipah virus Bangladesh (Nipah virus, strain Bangladesh) (UniProt Q9IH62); assay: cell-based or functional assay
[13] = biological target: NiVM-RBP head domain (residues 183-602), recombinant soluble (Nipah virus, strain Malaysia) (UniProt Q9IH62); assay: ELISA, RBP head domain coated on plate, hybridoma IgG
[14] = biological target: HeV-RBP head domain (residues 185-604), recombinant soluble (Hendra virus) (UniProt O89343); assay: as above
[15] = biological target: NiVB-RBP head domain (residues 185-602), recombinant soluble (Nipah virus, strain Bangladesh) (UniProt Q9IH62); assay: as above
[16] = biological target: HeV-RBP head domain (residues 185-604), recombinant soluble (Hendra virus) (UniProt O89343); assay: BLI on HeV RBP head domain, after first mAb HENV-32
[17] = biological target: HeV-RBP head domain (residues 185-604), recombinant soluble (Hendra virus) (UniProt O89343); assay: BLI on HeV RBP head domain, after first mAb HENV-21
[18] = biological target: HeV-RBP head domain (residues 185-604), recombinant soluble (Hendra virus) (UniProt O89343); assay: BLI on HeV RBP head domain, after first mAb HENV-18

Work on HENV-26 (antibody) yielded a % of signal of second mAb alone [1] of 97%, a % of signal of second mAb alone [2] of -5% and a % of signal of second mAb alone [3] of 109%. The % of signal of second mAb alone [4] was 97%, the % of signal of second mAb alone [5] was 91% and the EC50 [6] was 0.326 µg/mL. It also gave an EC50 [7] of 0.325 µg/mL, an EC50 [8] of 0.326 µg/mL and a % of signal of second mAb alone [9] of 97%. The % of signal of second mAb alone [10] was 100%, the Area under the curve (neutralization) [11] was 281 and the IC50, plaque reduction neutralization of live virus [11] was 0.07 µg/mL. It also gave an IC80, plaque reduction neutralization of live virus [11] of 0.19 µg/mL, a Max % Inhibition (neutralization) [11] of 100% and an Area under the curve (neutralization) [12] of 289. For the same substance, the IC50, plaque reduction neutralization of live virus [12] was 0.03 µg/mL, the IC80, plaque reduction neutralization of live virus [12] was 0.12 µg/mL and the Max % Inhibition (neutralization) [12] was 100%. It also gave an Area under the curve [13] of 11, an EC50 [13] of 0.07 µg/mL and an Area under the curve [14] of 5.39. For the same substance, the EC50 [14] was 0.14 µg/mL, the Area under the curve [15] was 10.5 and the EC50 [15] was 0.09 µg/mL. The % of signal of second mAb alone [16] was 100%, the % of signal of second mAb alone [17] was 99% and the % of signal of second mAb alone [18] was 91%.
